Assay results from patent publication US20130344073A1.

How the values were obtained:
human MASP-2 (human) = human MASP-2 (human) (UniProt O00187); assay: cell-based or functional assay
human MASP-1 (human) = human MASP-1 (human) (UniProt P48740); assay: cell-based or functional assay
Chain of human MASP-1 (human) (P48740 other isoform, or with tags, fused parts or gaps): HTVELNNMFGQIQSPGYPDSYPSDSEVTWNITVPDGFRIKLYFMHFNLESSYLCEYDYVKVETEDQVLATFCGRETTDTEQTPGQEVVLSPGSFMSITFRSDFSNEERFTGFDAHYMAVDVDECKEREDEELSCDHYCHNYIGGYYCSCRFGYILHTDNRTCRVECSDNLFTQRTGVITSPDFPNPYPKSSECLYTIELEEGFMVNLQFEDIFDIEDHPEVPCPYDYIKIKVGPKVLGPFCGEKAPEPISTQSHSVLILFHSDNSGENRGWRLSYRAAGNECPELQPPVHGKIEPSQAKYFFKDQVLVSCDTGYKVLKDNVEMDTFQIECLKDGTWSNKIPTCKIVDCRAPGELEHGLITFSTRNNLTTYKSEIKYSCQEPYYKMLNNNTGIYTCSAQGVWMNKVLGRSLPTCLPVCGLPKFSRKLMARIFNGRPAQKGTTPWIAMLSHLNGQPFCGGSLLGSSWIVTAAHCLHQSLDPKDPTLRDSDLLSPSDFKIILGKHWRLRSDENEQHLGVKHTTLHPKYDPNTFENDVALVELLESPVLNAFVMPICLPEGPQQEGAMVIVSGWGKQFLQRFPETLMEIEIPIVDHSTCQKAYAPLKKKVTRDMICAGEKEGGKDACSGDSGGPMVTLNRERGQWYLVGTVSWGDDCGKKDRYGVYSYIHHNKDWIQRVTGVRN

Chain of human MASP-2 (human) (O00187 16-686): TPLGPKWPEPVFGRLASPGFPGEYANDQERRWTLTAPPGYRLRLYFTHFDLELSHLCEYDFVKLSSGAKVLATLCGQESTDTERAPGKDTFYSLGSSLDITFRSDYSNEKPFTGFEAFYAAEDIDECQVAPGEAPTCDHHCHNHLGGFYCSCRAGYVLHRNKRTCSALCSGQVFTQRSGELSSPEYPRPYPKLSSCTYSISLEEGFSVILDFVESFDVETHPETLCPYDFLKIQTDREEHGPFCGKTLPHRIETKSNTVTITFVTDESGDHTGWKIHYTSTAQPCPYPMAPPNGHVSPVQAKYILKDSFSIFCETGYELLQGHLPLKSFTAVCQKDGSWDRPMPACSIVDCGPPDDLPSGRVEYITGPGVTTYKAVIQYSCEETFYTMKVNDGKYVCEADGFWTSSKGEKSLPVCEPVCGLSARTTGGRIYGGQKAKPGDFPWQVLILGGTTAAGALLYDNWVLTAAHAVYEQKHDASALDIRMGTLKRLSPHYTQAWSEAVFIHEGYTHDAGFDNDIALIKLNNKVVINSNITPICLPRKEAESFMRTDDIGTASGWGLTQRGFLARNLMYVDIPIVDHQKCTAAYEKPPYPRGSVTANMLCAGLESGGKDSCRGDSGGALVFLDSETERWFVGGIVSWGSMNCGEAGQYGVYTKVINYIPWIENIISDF

For “SGMI-2Fc, mature polypeptide fusion comprising SGMI-2, linker and human IgG1-Fc (Fc fusion)”, the C3b deposition from 1% normal human serum on mannan (IC50) (human MASP-2 (human)) was 300 nM.

For “SGMI-1Fc, mature polypeptide fusion comprising SGMI-1, linker and human IgG1-Fc (Fc fusion)”, the C3b deposition from 1% normal human serum on mannan (IC50) (human MASP-1 (human)) was 27 nM.
